Results published in paper PMC9065602, “Characterization of Polymer Degrading Lipases, LIP1 and LIP2 From Pseudomonas chlororaphis PA23” (Frontiers in Bioengineering and Biotechnology, 2022).

Test system: CCCCCCCC(=O)Oc1ccc([N+](=O)[O-])cc1
Assay: purified protein
Format: biochemical, Pseudomonas chlororaphis
Conditions: 0.1-3.0 mM substrate, optimal conditions (pH 8.0, 40 °C)

LIP2 (Pseudomonas chlororaphis) was tested, and the Km was 286 µM.
